Reference: the domain aggregation screens of Martell et al. (2025)

Assay: soluble fraction after stress (log2 fold change); higher = more stays soluble; pooled small domains, quantitative proteomics
Settings: stress: 50 degC
How it was run: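 Pooled custom libraries of small protein domains were each held under stress at 50°C. The read-out, high-throughput quantitative proteomics, tracked how much of each protein stayed soluble. This is reported as a base-two log fold change used to indicate aggregation propensity. Higher values mean more protein remains in solution.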

Sequence	soluble fraction (log2)
HMKRSVIVTAERAEVRQKADEGSALVFEAEKNVSLEYLEAAPGGWVKVRHLDGQSGFVRGNQI	-0.37
HMVPEETKQFINQLNHGSLSIRMNAANNLEKLGLLAIPEIEAALPKAHGEAAFRLPRLLHALVLRETEYF	-0.00885
HMSGSFDVTLDYLNSLRNLYPAIDVEQEFRKMYAWLDSNPKNRKTERGIKRFITGWLGRAQDKAP	-1.12
HMAEPTLNERLREALSDPAKLKIAKAIKAKYPIITARDIDTFLNMHEKDIENGADPMDEFEEFFHANY	0.127
HMKINKQHLAFQIFGIRAKLGLSMEQFGELLGANKSSVSGWERGTVVPSSQRLKKIAELGKISLAELLTP	-1.23
HMEKIIFEISEEGKRLDLYIAERTELTRTRIQQLIKDGNINVNNKKSKPSYKVEKNDFIEMIIPDE	-0.56
HMESPVNTLPEDQRAWYKALPPELSTKTAVEAGAGVGVSERTVKRLLSNQTFFINLQRGNYRKRH	0.172
HMDDPITVAYRETEDAIAQVQREGFPVEMPPANSYIRRIQHELAGRFNLDSESYGDEPERRVRIRPQQ	-0.00875
HMSNKYYETILDWFKSQIMSGELKEGDTIPSERELATRFGVSRVPVREALRILEYIGIVSNTADGMTVQKV	-0.879
HMIIDTELMTRVMKFGFSQADASDLVAQHSDDLLRTAISRVEARAESKGMTPLETPAGYFRWTLQDLVRNP	-1.24
HMADGTSIYAEREVLYVTSPTANTAKVYNVSGALVRTMTLSAGQTVRTALPAGFYVVALGNGNTHKVIV	-0.889
HMRNMVSVLDHIEGIGPKRRQLLYEHYGELEKIKEASVEEMAGLDGMNRPAAEAVYNFFLAQRNL	0.0507
HMQRNLILKLDTDQPEIYKKLESIFVEINGLLVPFFIEKIIWSKQDSLNILFKNSSEALVEQLIGKNVFLP	0.0989
HMGVAFAPVEKIKHTKTGNELYAVKLAGRVEAEVFGQLRQKAKEYDGYYSKFSRAFLFSTPEDAEAFRAE	0.0208
HMDHFLRRFQVEGLNLEKLLRLAAEREMDLLQVRRSGRRMTGLVAEKRLPELEELAAQGGWALRLGEY	-0.268
HMAAGELSGEALIALIERHPMALSALATTFGHSESDLRAFVEPLARQGRLRLFESQGTLFVGGIG	-0.022
HMGEAIPVPDLKHKALTDAEHLVHELGLEIQVVDTGYVKSLPADYILGQSLAPGEKVKSGHIIYVTINSP	-0.0167
HMKGTLPEMITSREEVVLKFMVNGWDAKRIASELDISVLTVRKHIANIYEKLHVQSKAEIISMAHQQKWFN	-1.52
HMEPPAPAPDIPYPSRVTVRREVDGWPHYYGTWTRTPPVLGYEGIWLVGVSLDGKVQFVPVDDVTIA	-0.627

Sequence	soluble fraction (log2)
HMKAFTKKELQDLVLNIFRASPTTNYNYKQLYKLIRGKDPEIKTLIIAVLLGLEKNGSILQMRPGKYKFS	0.593
HMPGVLEVDTGGVAAVAYVDGVEVGRVPGELQIAAGTKTLMLKADRYLDYVQSLEIDGLGKRQLLVATLQS	-0.25
HMFGEKEFYQWIGKTAGEKFSGLPAAVIKSLYKYWREYNLSEEDIMGFIRQTELLPKRTPLDVELFFEK	-0.456
HMADEEEIMVPQVVGKTYDEAKSELENAGFKVEKNEKTSDKASGTVISQSINGGAKKGTSVTLTVSKGN	0.149
HMGEIHALIPGLVSRLFVKPGDRVENGQGLLILEAMKMENEIDSPISGVVGKIYIKAGDKVEKGELIMEIN	-0.46
HMENVALYIRLKSMASVYDDVHGYNIEWIKSMIGLSIDIEKLRTVLEDVSWITKVEEDVYSFSKNAKPFE	-4.31
HMEIITIVSDINGKRIDAWLSEKLENYSRSFIQKLIQNENVKVNNNIVKANYKLKNGDAVAVSIPEPV	≥ 0.62
HMDAIAYLGSRLKEIRLKSGLSLREIARQLDVSPSFISQIENGKSQPSVATLYAFAKLLNVPVDVLFQPS	-1.05
HMNDLIFSTLAEYDRDTITEIISVVDNTRGIGYEVELVRKDLIAMAAQAEARRDYLPSVIGDVEVFKRNLL	0.0286
HMNSVKSPMPGTILGLKVSVGDTVKVGDELLVLESMKMENMINSPIDGTVSKILISEGDSVQHGQELII	0.215
HMEYDEVVVVKQIIPKGKNTMVAHLKHLKEHGETGFLKQAVGYLKLHASEIPFSVDAVISEVH	-0.361
HMSLMLYVEDVDTAFKKAIELGATEIRPVHDQFYGDRAGTLQDPFGHIWIIGTHKEDVSDEELNNRIGNI	-0.0131
HMSVSATQMDAFVRQLRARLSSADGLDDAARLVRQDLEPFLGRFSDETERDFAAAIEQVRGSIRPVEI	0.0229
HMAKPVKSPLPGSVIKVAVKVGQQIKRGDLLLTLESMKMENSILAEKDGVVKNIHVQAGQSVMQDDLLLDI	0.0752
HMAPQQARAAKTRVKLLDAAATVVRRDGIQAMTLARVAEEAGVSKGGLLHHFGSKEELVTGMLEQ	-0.152
HMSEQTLEDVRRLIEHLPESQKEVVKMRYYQDLSFKEIADLKGISINTALGRMHYAINNMRKMAKEYGL	-1.54
HMEAAETAVVTGTIVNIRSGPTLDFEAFAQVKQGDRLPVLDKFYNWYYVKLPSGVNGWISGQLVRIEQ	-0.25
HMGAGLDDLVRKSLHNAGLKADDNVVSWISGNLGSDRMVSRMELEKLVLFVAGQSEITLEDAQAVIGD	-0.305
HMSGITDIITDGKATSRPVVVTDGGHIRVLSPYTSFAIYTLGGMSLPTESRLEPGIYIVVVDSNAVKVAV	-0.619
